Substrate in series [1]: NC(=O)C1=CN([C@@H]2O[C@H](COP(=O)(O)OP(=O)(O)OC[C@H]3O[C@@H](n4cnc5c(N)ncnc54)[C@H](OP(=O)(O)O)[C@@H]3O)[C@@H](O)[C@H]2O)C=CC1
Briefly: cells, lysate or membranes. It counts as biochemical, Fructilactobacillus sanfranciscensis. The conditions noted are these: 50 mM potassium phosphate pH 7.0, 25 °C, air-saturated O2 (250 µM), cell free extract.

Substrate in series [2]: NC(=O)C1=CN([C@@H]2O[C@H](COP(=O)(O)OP(=O)(O)OC[C@H]3O[C@@H](n4cnc5c(N)ncnc54)[C@H](O)[C@@H]3O)[C@@H](O)[C@H]2O)C=CC1
Briefly: cells, lysate or membranes. It counts as biochemical, Fructilactobacillus sanfranciscensis. The conditions noted are these: 50 mM potassium phosphate pH 7.0, 25 °C, air-saturated O2 (250 µM), cell free extract.

B1: LsNOX (Lactobacillus sanfranciscensis NOX) (Fructilactobacillus sanfranciscensis) (protein)
chain: MKVIVVGCTHAGTFAVKQTIADHPDADVTAYEMNDNISFLSCGIALYLGKEIKNNDPRGLFYSSPEELSNLGANVQMRHQVTNVDPETKTIKVKDLITNEEKTEAYDKLIMTTGSKPTVPPIPGIDSSRVYLCKNYNDAKKLFEEAPKAKTITIIGSGYIGAELAEAYSNQNYNVNLIDGHERVLYKYFDKEFTDILAKDYEAHGVNLVLGSKVAAFEEVDDEIITKTLDGKEIKSDIAILCIGFRPNTELLKGKVAMLDNGAIITDEYMHSSNRDIFAAGDSAAVHYNPTNSNAYIPLATNAVRQGRLVGLNLTEDKVKDMGTQSSSGLKLYGRTYVSTGINTALAKANNLKVSEVIIADNYRPEFMLSTDEVLMSLVYDPKTRVILGGALSSMHDVSQSANVLSVCIQNKNTIDDLAMVDMLFQPQFDRPFNYLNILGQAAQAQADKAHK
notes: synthetic gene, plasmid pMSsN2, E. coli BL21 (DE3), untagged, cell free extract, about 50 kDa
The term Km denotes the concentration of substrate that gives half-maximal velocity. As a reminder, the Vmax is the top rate of the reaction or transport when substrate is in excess. Regarding B1, in series [1], the Km turned out to be 5 ± 1 µM and the maximal velocity (Vmax) came to 1.1 µmol/min/mg. Also, in series [2], the Michaelis-Menten constant (Km) is listed as 9 ± 1 µM and the maximal velocity (Vmax) came out at 2.2 µmol/min/mg.

The values are drawn from PMC3995211.
